Test results published in paper doi:10.1101/2024.02.27.582283.

Target: SET-26::GFP, excessively sumoylated (ulp-2 loss of activity background) (C. elegans) (UniProt Q9U263)
Assay: co-IP

Sequence of UniProt Q9U263 (Q9U263 whole entry): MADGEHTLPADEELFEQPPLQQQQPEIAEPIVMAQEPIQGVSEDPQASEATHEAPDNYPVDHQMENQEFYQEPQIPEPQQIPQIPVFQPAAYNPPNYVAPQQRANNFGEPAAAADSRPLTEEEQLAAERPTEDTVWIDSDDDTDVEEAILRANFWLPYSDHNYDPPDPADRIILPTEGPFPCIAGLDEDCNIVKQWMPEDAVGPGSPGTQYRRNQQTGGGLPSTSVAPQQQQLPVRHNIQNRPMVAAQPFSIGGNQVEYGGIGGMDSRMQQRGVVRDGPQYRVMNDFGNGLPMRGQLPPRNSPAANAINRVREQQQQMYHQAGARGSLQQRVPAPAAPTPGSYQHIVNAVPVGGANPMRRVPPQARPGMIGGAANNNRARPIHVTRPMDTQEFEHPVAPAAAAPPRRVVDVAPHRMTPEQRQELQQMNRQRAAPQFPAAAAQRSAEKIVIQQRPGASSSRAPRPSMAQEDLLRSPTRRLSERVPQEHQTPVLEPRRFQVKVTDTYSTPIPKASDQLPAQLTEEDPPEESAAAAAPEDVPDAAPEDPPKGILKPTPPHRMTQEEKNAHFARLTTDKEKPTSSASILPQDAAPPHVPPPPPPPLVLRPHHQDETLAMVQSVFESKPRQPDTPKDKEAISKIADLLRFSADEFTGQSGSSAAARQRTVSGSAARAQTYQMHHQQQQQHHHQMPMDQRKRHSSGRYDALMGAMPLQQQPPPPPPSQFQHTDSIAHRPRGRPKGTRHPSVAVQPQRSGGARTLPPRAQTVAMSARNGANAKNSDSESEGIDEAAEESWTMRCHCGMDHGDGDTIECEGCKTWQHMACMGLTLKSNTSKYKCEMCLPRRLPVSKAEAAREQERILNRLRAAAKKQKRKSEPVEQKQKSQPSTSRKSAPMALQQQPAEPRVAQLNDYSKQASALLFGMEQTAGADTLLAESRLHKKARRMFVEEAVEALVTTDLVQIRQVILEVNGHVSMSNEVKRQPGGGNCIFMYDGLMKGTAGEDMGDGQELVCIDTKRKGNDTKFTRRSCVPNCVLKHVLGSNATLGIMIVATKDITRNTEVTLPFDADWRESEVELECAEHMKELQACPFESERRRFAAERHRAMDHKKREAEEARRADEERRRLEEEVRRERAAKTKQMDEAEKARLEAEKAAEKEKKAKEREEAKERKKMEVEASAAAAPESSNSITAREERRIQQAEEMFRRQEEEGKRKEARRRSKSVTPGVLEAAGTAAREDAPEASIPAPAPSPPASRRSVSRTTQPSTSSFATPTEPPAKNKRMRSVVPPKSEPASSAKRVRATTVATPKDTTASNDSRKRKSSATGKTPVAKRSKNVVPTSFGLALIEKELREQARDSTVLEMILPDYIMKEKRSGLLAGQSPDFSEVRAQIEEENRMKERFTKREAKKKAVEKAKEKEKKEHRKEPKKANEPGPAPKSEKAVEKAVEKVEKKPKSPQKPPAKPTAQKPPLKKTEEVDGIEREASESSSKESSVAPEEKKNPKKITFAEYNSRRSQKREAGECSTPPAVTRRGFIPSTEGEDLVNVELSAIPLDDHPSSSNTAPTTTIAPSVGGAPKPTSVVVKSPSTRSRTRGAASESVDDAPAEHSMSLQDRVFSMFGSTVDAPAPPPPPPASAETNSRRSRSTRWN

- reduction of binding compared with WT: 55%
Substance: Histone H3 trimethylated at lysine 4 (H3K4me3) (from UniProt P08898 1-136) (natural protein)
